{"source": "the supplement of paper PMC10567573", "parents": {"B1": {"name": "MTMR15 (parent)", "chain": "FSPDFTLRNTLKSTSEDSLVKQEC"}, "B2": {"name": "RPS21 (parent)", "chain": "AEVSWEPGRREGCDICAGKAGCPI"}}}
{"variants_of": "B1", "assay": "protein stability index of a GFP-peptide fusion (GPS, HEK-293T) (PSI 1-6); higher = more stable", "settings": "c terminus: a fixed tail appended"}
{"variant": "FSPDFTLRNTLKSTSEDSLVTQEC", "note": "[K21T]", "protein stability index": 2.1}
{"variant": "FSPDFTLRNTLKSTSEDSLVYQEC", "note": "[K21Y]", "protein stability index": 2.62}
{"variant": "FSPDFTLRNTLKSTSEDSLVDQEC", "note": "[K21D]", "protein stability index": 2.23}
{"variant": "FSPDFTLRNTLKSTSEDSLVFQEC", "note": "[K21F]", "protein stability index": 2.06}
{"variant": "FSPDFTLRNTLKSTSEDSLVQQEC", "note": "[K21Q]", "protein stability index": 2.33}
{"variant": "FSPDFTLRNTLKSTSEDSLVLQEC", "note": "[K21L]", "protein stability index": 2.04}
{"variant": "FSPDFTLRNTLKSTSEDSLVAQEC", "note": "[K21A]", "protein stability index": 2.81}
{"variant": "FSPDFTLRNTLKSTSEDSLVSQEC", "note": "[K21S]", "protein stability index": 1.9}
{"variant": "FSPDFTLRNTLKSTSEDSLVHQEC", "note": "[K21H]", "protein stability index": 2.83}
{"variant": "FSPDFTLRNTLKSTSEDSLVPQEC", "note": "[K21P]", "protein stability index": 1.86}
{"variant": "FSPDFTLRNTLKSTSEDSLVRQEC", "note": "[K21R]", "protein stability index": 3.02}
{"variant": "FSPDFTLRNTLKSTSEDSLVIQEC", "note": "[K21I]", "protein stability index": 2.21}
{"variant": "FSPDFTLRNTLKSTSEDSLVGQEC", "note": "[K21G]", "protein stability index": 2.15}
{"variant": "FSPDFTLRNTLKSTSEDSLVWQEC", "note": "[K21W]", "protein stability index": 2.4}
{"variant": "FSPDFTLRNTLKSTSEDSLVEQEC", "note": "[K21E]", "protein stability index": 2.52}
{"variant": "FSPDFTLRNTLKSTSEDSLVMQEC", "note": "[K21M]", "protein stability index": 2.86}
{"variant": "FSPDFTLRNTLKSTSEDSLVCQEC", "note": "[K21C]", "protein stability index": 2.69}
{"variant": "FSPDFTLRNTLKSTSEDSLVNQEC", "note": "[K21N]", "protein stability index": 2.94}
{"variant": "FSPDFTLRNTLKSTSEDSLVVQEC", "note": "[K21V]", "protein stability index": 2}
{"variant": "FSPDFTLRNTLKSTSEDSLVKQCC", "note": "[E23C]", "protein stability index": 2.49}
{"variant": "FSPDFTLRNTLKSTSEDSLVKQAC", "note": "[E23A]", "protein stability index": 2.87}
{"variant": "FSPDFTLRNTLKSTSEDSLVKQQC", "note": "[E23Q]", "protein stability index": 2.3}
{"variant": "FSPDFTLRNTLKSTSEDSLVKQNC", "note": "[E23N]", "protein stability index": 1.58}
{"variant": "FSPDFTLRNTLKSTSEDSLVKQFC", "note": "[E23F]", "protein stability index": 2.51}
{"variant": "FSPDFTLRNTLKSTSEDSLVKQIC", "note": "[E23I]", "protein stability index": 1.72}
{"variant": "FSPDFTLRNTLKSTSEDSLVKQRC", "note": "[E23R]", "protein stability index": 2.42}
{"variant": "FSPDFTLRNTLKSTSEDSLVKQDC", "note": "[E23D]", "protein stability index": 1.52}
{"variant": "FSPDFTLRNTLKSTSEDSLVKQKC", "note": "[E23K]", "protein stability index": 1.61}
{"variant": "FSPDFTLRNTLKSTSEDSLVKQTC", "note": "[E23T]", "protein stability index": 1.75}
{"variant": "FSPDFTLRNTLKSTSEDSLVKQVC", "note": "[E23V]", "protein stability index": 1.94}
{"variant": "FSPDFTLRNTLKSTSEDSLVKQSC", "note": "[E23S]", "protein stability index": 2.27}
{"variant": "FSPDFTLRNTLKSTSEDSLVKQYC", "note": "[E23Y]", "protein stability index": 1.84}
{"variant": "FSPDFTLRNTLKSTSEDSLVKQWC", "note": "[E23W]", "protein stability index": 2.59}
{"variant": "FSPDFTLRNTLKSTSEDSLVKQGC", "note": "[E23G]", "protein stability index": 2.26}
{"variant": "FSPDFTLRNTLKSTSEDSLVKQMC", "note": "[E23M]", "protein stability index": 1.88}
{"variant": "FSPDFTLRNTLKSTSEDSLVKQLC", "note": "[E23L]", "protein stability index": 1.77}
{"variant": "FSPDFTLRNTLKSTSEDSLVKQHC", "note": "[E23H]", "protein stability index": 1.95}
{"variant": "FSPDFTLRNTLKSTSEDSLVKQPC", "note": "[E23P]", "protein stability index": 2.04}
{"variant": "FSPDFTLRNTLKSTSEDSLVKSEC", "note": "[Q22S]", "protein stability index": 1.86}
{"variant": "FSPDFTLRNTLKSTSEDSLVKLEC", "note": "[Q22L]", "protein stability index": 1.88}
{"variant": "FSPDFTLRNTLKSTSEDSLVKDEC", "note": "[Q22D]", "protein stability index": 1.92}
{"variant": "FSPDFTLRNTLKSTSEDSLVKKEC", "note": "[Q22K]", "protein stability index": 1.62}
{"variant": "FSPDFTLRNTLKSTSEDSLVKGEC", "note": "[Q22G]", "protein stability index": 2.31}
{"variant": "FSPDFTLRNTLKSTSEDSLVKREC", "note": "[Q22R]", "protein stability index": 1.72}
{"variant": "FSPDFTLRNTLKSTSEDSLVKIEC", "note": "[Q22I]", "protein stability index": 2.06}
{"variant": "FSPDFTLRNTLKSTSEDSLVKHEC", "note": "[Q22H]", "protein stability index": 1.91}
{"variant": "FSPDFTLRNTLKSTSEDSLVKCEC", "note": "[Q22C]", "protein stability index": 2.06}
{"variant": "FSPDFTLRNTLKSTSEDSLVKAEC", "note": "[Q22A]", "protein stability index": 1.56}
{"variant": "FSPDFTLRNTLKSTSEDSLVKNEC", "note": "[Q22N]", "protein stability index": 2.02}
{"variant": "FSPDFTLRNTLKSTSEDSLVKWEC", "note": "[Q22W]", "protein stability index": 2.08}
{"variant": "FSPDFTLRNTLKSTSEDSLVKPEC", "note": "[Q22P]", "protein stability index": 1.67}
{"variant": "FSPDFTLRNTLKSTSEDSLVKMEC", "note": "[Q22M]", "protein stability index": 1.65}
{"variant": "FSPDFTLRNTLKSTSEDSLVKTEC", "note": "[Q22T]", "protein stability index": 2.42}
{"variant": "FSPDFTLRNTLKSTSEDSLVKEEC", "note": "[Q22E]", "protein stability index": 2.15}
{"variant": "FSPDFTLRNTLKSTSEDSLVKVEC", "note": "[Q22V]", "protein stability index": 2}
{"variant": "FSPDFTLRNTLKSTSEDSLVKYEC", "note": "[Q22Y]", "protein stability index": 2.39}
{"variant": "FSPDFTLRNTLKSTSEDSLVKFEC", "note": "[Q22F]", "protein stability index": 2.65}
{"variant": "FSPDFTLRNTLKSTSEDSLVKQEQ", "note": "[C24Q]", "protein stability index": 2.87}
{"variant": "FSPDFTLRNTLKSTSEDSLVKQED", "note": "[C24D]", "protein stability index": 2.59}
{"variant": "FSPDFTLRNTLKSTSEDSLVKQET", "note": "[C24T]", "protein stability index": 1.98}
{"variant": "FSPDFTLRNTLKSTSEDSLVKQEK", "note": "[C24K]", "protein stability index": 1.4}
{"variant": "FSPDFTLRNTLKSTSEDSLVKQEV", "note": "[C24V]", "protein stability index": 2.03}
{"variant": "FSPDFTLRNTLKSTSEDSLVKQEP", "note": "[C24P]", "protein stability index": 2.75}
{"variant": "FSPDFTLRNTLKSTSEDSLVKQEH", "note": "[C24H]", "protein stability index": 1.85}
{"variant": "FSPDFTLRNTLKSTSEDSLVKQEE", "note": "[C24E]", "protein stability index": 1.69}
{"variant": "FSPDFTLRNTLKSTSEDSLVKQEN", "note": "[C24N]", "protein stability index": 2.16}
{"variant": "FSPDFTLRNTLKSTSEDSLVKQEY", "note": "[C24Y]", "protein stability index": 3.07}
{"variant": "FSPDFTLRNTLKSTSEDSLVKQEM", "note": "[C24M]", "protein stability index": 2.74}
{"variant": "FSPDFTLRNTLKSTSEDSLVKQER", "note": "[C24R]", "protein stability index": 2.34}
{"variant": "FSPDFTLRNTLKSTSEDSLVKQEF", "note": "[C24F]", "protein stability index": 2.63}
{"variant": "FSPDFTLRNTLKSTSEDSLVKQEI", "note": "[C24I]", "protein stability index": 1.67}
{"variant": "FSPDFTLRNTLKSTSEDSLVKQEL", "note": "[C24L]", "protein stability index": 2.03}
{"variant": "FSPDFTLRNTLKSTSEDSLVKQEW", "note": "[C24W]", "protein stability index": 2.18}
{"variant": "FSPDFTLRNTLKSTSEDSLVKQEG", "note": "[C24G]", "protein stability index": 2.39}
{"variant": "FSPDFTLRNTLKSTSEDSLVKQES", "note": "[C24S]", "protein stability index": 1.85}
{"variant": "FSPDFTLRNTLKSTSEDSLVKQEA", "note": "[C24A]", "protein stability index": 2.03}
{"variant": "FSPDFTLRNTLKSTSEDSLTKQEC", "note": "[V20T]", "protein stability index": 2.01}
{"variant": "FSPDFTLRNTLKSTSEDSLLKQEC", "note": "[V20L]", "protein stability index": 2.08}
{"variant": "FSPDFTLRNTLKSTSEDSLWKQEC", "note": "[V20W]", "protein stability index": 2.12}
{"variant": "FSPDFTLRNTLKSTSEDSLKKQEC", "note": "[V20K]", "protein stability index": 2.46}
{"variant": "FSPDFTLRNTLKSTSEDSLIKQEC", "note": "[V20I]", "protein stability index": 2.19}
{"variant": "FSPDFTLRNTLKSTSEDSLMKQEC", "note": "[V20M]", "protein stability index": 2.29}
{"variant": "FSPDFTLRNTLKSTSEDSLSKQEC", "note": "[V20S]", "protein stability index": 2.04}
{"variant": "FSPDFTLRNTLKSTSEDSLYKQEC", "note": "[V20Y]", "protein stability index": 2}
{"variant": "FSPDFTLRNTLKSTSEDSLNKQEC", "note": "[V20N]", "protein stability index": 2.2}
{"variant": "FSPDFTLRNTLKSTSEDSLRKQEC", "note": "[V20R]", "protein stability index": 2.21}
{"variant": "FSPDFTLRNTLKSTSEDSLPKQEC", "note": "[V20P]", "protein stability index": 2.44}
{"variant": "FSPDFTLRNTLKSTSEDSLQKQEC", "note": "[V20Q]", "protein stability index": 2.06}
{"variants_of": "B2", "assay": "protein stability index of a GFP-peptide fusion (GPS, HEK-293T) (PSI 1-6); higher = more stable", "settings": "c terminus: a fixed tail appended"}
{"variant": "AEQSWEPGRREGCDICAGKAGCPI", "note": "[V3Q]", "protein stability index": 3.17}
{"variant": "AEVSWEPGRREGCDICAGKDGCPI", "note": "[A20D]", "protein stability index": 3.5}
{"variant": "ADVSWEPGRREGCDICAGKAGCPI", "note": "[E2D]", "protein stability index": 3.79}
{"variant": "AEVSWEPCRREGCDICAGKAGCPI", "note": "[G8C]", "protein stability index": 3.67}
{"variant": "AEVSWMPGRREGCDICAGKAGCPI", "note": "[E6M]", "protein stability index": 2.6}
{"variant": "AEVSWEPGRREGCDIQAGKAGCPI", "note": "[C16Q]", "protein stability index": 4.37}
